Consider 2 proteins from patent publication US6465220.

One data set deals with T1, PSGL-1b peptide.
T1 chain: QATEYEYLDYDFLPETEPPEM

In the next data set the target is T2, PSGL-1a peptide.
T2 chain: QATEYEYLDYDFLPEC

B1: soluble recombinant human GalNAc-T1 (pAcGP67-GalNAc-T1-sol) (protein)
chain: GLPAGDVLEPVQKPHEGPGEMGKPVVIPKEDQEKMKEMFKINQFNLMASEMIALNRSLPDVRLEGCKTKVYPDNLPTTSVVIVFHNEAWSTLLRTVHSVINRSPRHMIEEIVLVDDASERDFLKRPLESYVKKLKVPVHVIRMEQRSGLIRARLKGAAVSKGQVITFLDAHCECTVGWLEPLLARIKHDRRTVVCPIIDVISDDTFEYMAGSDMTYGGFNWKLNFRWYPVPQREMDRRKGDRTLPVRTPTMAGGLFSIDRDYFQEIGTYDAGMDIWGGENLEISFRIWQCGGTLEIVTCSHVGHVFRKATPYTFPGGTGQIINKNNRRLAEVWMDEFKNFFYIISPGVTKVDYGDISSRVGLRHKLQCKPFSWYLENIYPDSQIPRHYFSLGEIRNVETNQCLDNMARKENEKVGIFNCHGMGGNQVFSYTANKEIRTDDLCLDVSKLNGPVTMLKCHHLKGNQLWEYDPVKLTLQHVNSNQCLDKATEEDSQVPSIRDCNGSRSQQWLLRNVTLPEIF
On to B1, for which the GalNAc-transferase activity entry in the data set with PSGL-1b peptide and in the data set with PSGL-1a peptide was “exhibited poor activities with both peptide designs” in each case. The values for the Km for acceptor substrate with PSGL-1b peptide, in the data set with Muc7 peptide and in the data set with EA2 peptide were over 2000 µM, 40 µM and 70 µM, respectively. Also, the results for the Vmax with Muc7 peptide and with EA2 peptide were 0.76 nmol/min/µg and 0.99 nmol/min/µg, respectively.

B2: soluble recombinant human GalNAc-T3 (pAcGP67-GalNAc-T3-sol) (protein)
chain: MERNMKNKNKMLDLMLEAVNNIKDAMPKMQIGAPVRQNIDAGERPCLQGYYTAAELKPVLDRPPQDSNAPGASGKAFKTTNLSVEEQKEKERGEAKHCFNAFASDRISLHRDLGPDTRPPECIEQKFKRCPPLPTTSVIIVFHNEAWSTLLRTVHSVLYSSPAILLKEIILVDDASVDEYLHDKLDEYVKQFSIVKIVRQRERKGLITARLLGATVATAETLTFLDAHCECFYGWLEPLLARIAENYTAVVSPDIASIDLNTFEFNKPSPYGSNHNRGNFDWSLSFGWESLPDHEKQRRKDETYPIKTPTFAGGLFSISKEYFEYIGSYDEEMEIWGGENIEMSFRVWQCGGQLEIMPCSVVGHVFRSKSPHSFPKGTQVIARNQVRLAEVWMDEYKEIFYRRNTDAAKIVKQKAFGDLSKRFEIKHRLQCKNFTWYLNNIYPEVYVPDLNPVISGYIKSVGQPLCLDVGENNQGGKPLIMYTCHGLGGNQYFEYSAQHEIRHNIQKELCLHAAQGLVQLKACTYKGHKTVVTGEQIWEIQKDQLLYNPFLKMCLSANGEHPSLVSCNPSDPLQKWILSQND
In the case of B2, the GalNAc-transferase activity result in the data set with PSGL-1b peptide and with PSGL-1a peptide was “exhibited poor activities with both peptide designs” each time.
